# Changes are numbered by the printed parent chain. Names and notes keep the numbering of the source.
# T1: anti-CLDN-5 ECR mAb clone 1B3
# T1 chain 1: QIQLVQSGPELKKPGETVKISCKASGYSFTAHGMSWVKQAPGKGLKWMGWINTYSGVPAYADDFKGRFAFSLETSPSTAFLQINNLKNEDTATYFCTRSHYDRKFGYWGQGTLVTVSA
# T1 chain 2: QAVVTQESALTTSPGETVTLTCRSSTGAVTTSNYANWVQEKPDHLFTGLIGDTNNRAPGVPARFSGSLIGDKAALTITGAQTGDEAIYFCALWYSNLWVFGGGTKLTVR
# B1: AGIA-tagged human CLDN-5, cell-free synthesized proteoliposome, O00501 Q156A (protein)
# chain: MGSAALEILGLVLCLVGWGGLILACGLPMWQVTAFLDHNIVTAQTTWKGLWMSCVVQSTGHMQCKVYDSVLALSTEVQAARALTVSAVLLAFVALFVTLAGAQCTTCVAPGPAKARVALTGGVLYLFCGLLALVPLCWFANIVVREFYDPSVPVSAKYELGAALYIGWAATALLMVGGCLLCCGAWVCTGRPDLSFPVKYSAPRRPTATGDYDKKNYV
# B2: AGIA-tagged human CLDN-5, cell-free synthesized proteoliposome, O00501 D149A (protein)
# chain: B1 chain with D149A, A156Q
# B3: AGIA-tagged human CLDN-5, cell-free synthesized proteoliposome, O00501 F147A (protein)
# chain: B1 chain with F147A, A156Q
# B4: AGIA-tagged human CLDN-5, cell-free synthesized proteoliposome, O00501 V154A (protein)
# chain: B1 chain with V154A, A156Q
# B5: AGIA-tagged human CLDN-5, cell-free synthesized proteoliposome, O00501 E146A (protein)
# chain: B1 chain with E146A, A156Q
# B6: AGIA-tagged human CLDN-5, cell-free synthesized proteoliposome, O00501 S155A (protein)
# chain: B1 chain with S155A, A156Q
# B7: AGIA-tagged human CLDN-5, cell-free synthesized proteoliposome, O00501 V152A (protein)
# chain: B1 chain with V152A, A156Q
# B8: AGIA-tagged human CLDN-5, cell-free synthesized proteoliposome, O00501 P150A (protein)
# chain: B1 chain with P150A, A156Q
# B9: AGIA-tagged human CLDN-5, cell-free synthesized proteoliposome, O00501 S151A (protein)
# chain: B1 chain with S151A, A156Q
# B10: AGIA-tagged human CLDN-5, cell-free synthesized proteoliposome, O00501 Y148A (protein)
# chain: B1 chain with Y148A, A156Q
# B11: AGIA-tagged human CLDN-5, cell-free synthesized proteoliposome, O00501 P153A (protein)
# chain: B1 chain with P153A, A156Q
# Target: T1, anti-CLDN-5 ECR mAb clone 1B3
# Assay: proteoliposome ELISA
# Conditions: chain shown with the change;; parent: est. 1.0; read off a plot
row,Binder,ratio to parent
1,B1,1.2
2,B2,0.17
3,B3,2.4
4,B4,1.2
5,B5,0.49
6,B6,1.3
7,B7,0.25
8,B8,1.8
9,B9,0.75
10,B10,0.17
11,B11,0.19

# Target: anti-CLDN-5 ECR mAb clone 1D1
# Sequence (chain, as listed by the source, chain 1 of 2): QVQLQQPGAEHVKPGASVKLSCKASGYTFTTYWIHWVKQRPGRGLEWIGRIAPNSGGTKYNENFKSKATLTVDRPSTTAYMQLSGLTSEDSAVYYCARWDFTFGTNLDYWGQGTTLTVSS
# Sequence (chain, as listed by the source, chain 2 of 2): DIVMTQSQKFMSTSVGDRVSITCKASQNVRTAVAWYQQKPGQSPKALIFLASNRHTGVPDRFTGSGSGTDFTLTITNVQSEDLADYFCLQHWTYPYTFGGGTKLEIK
# Assay: proteoliposome ELISA
# Conditions: chain shown with the change;; parent: est. 1.0; read off a plot
row,Binder,ratio to parent
1,B1,0.88
2,B2,0.06
3,B3,1.5
4,B4,1.3
5,B5,0.26
6,B6,0.86
7,B7,1.6
8,B8,0.26
9,B9,0.1
10,B10,1.3
11,B11,0.13

# Target: anti-CLDN-5 ECR mAb clone 2B1
# Sequence (chain, as listed by the source, chain 1 of 2): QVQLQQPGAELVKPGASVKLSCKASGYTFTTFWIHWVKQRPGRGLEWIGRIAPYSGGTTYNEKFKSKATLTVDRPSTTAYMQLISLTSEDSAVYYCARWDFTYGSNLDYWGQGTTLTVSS
# Sequence (chain, as listed by the source, chain 2 of 2): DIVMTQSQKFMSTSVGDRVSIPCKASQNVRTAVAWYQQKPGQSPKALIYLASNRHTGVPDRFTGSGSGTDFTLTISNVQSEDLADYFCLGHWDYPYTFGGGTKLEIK
# Assay: proteoliposome ELISA
# Conditions: chain shown with the change;; parent: est. 1.0; read off a plot
row,Binder,ratio to parent
1,B1,0.55
2,B2,0.11
3,B3,1.1
4,B4,1.1
5,B5,0.25
6,B6,0.84
7,B7,1.2
8,B8,0.27
9,B9,0.14
10,B10,1.1
11,B11,0.14

# Target: anti-CLDN-5 ECR mAb clone 2B12
# Sequence (chain, as listed by the source, chain 1 of 2): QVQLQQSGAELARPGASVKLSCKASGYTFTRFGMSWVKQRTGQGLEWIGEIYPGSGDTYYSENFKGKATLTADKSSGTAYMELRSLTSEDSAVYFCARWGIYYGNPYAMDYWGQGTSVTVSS
# Sequence (chain, as listed by the source, chain 2 of 2): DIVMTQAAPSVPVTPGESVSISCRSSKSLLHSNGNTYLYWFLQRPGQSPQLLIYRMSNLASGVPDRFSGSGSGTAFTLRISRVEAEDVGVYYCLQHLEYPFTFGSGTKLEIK
# Assay: proteoliposome ELISA
# Conditions: chain shown with the change;; parent: est. 1.0; read off a plot
row,Binder,ratio to parent
1,B1,0.94
2,B2,0.03
3,B3,1.3
4,B4,0.87
5,B5,0.36
6,B6,0.99
7,B7,0.39
8,B8,0.13
9,B9,0.03
10,B10,0.75
11,B11,0.08

# Reference: article PMC5976803
